IntAct's records for PubMed 24508339

B1: Mitochondrial dynamics protein MID51 (Mus musculus), Q8BGV8 (parent)
chain: MAGAGERKGKKDDNGIGTAIDFVLSNARLVLGVGGAAMLGIATLAVKRMYDRAISAPTSPTRLSHSGKRSWEEPNWMGSPRLLNKDMKAGLSRSLQTLPTDSSAFDTDTFCPPRPKPLARRGQVDLKKSRLRMSLQEKLLSYYRNRAAIPAGEQARAKQAAVDICAELRSFLRAKLPDMPLRDMYLSGSLYDDLQVVTADHIQLIVPLVLEQNLWSCIPGEDTIMNVPGFFLVRRENPEYFPRGSSYWDRCVVGGYLSPKTVADTFEKVVAGSINWPAIGSLLDYVIRPAPPPEALTLEVQYEKDKHLVIDFLPSVTLGDTVLVARPHRLAQYDNLWRLSLRPAETARLRALDQADSGCRSLCLKILKAICKSTPALGHLTASQLTNVILHLAQEEADWSPDMLADRFLQALRGLISYLEAGVLPSALNPKVNLFAELTPQEIDELGYTLYCSLSEPEVLLQT

Variants of: B1
Conditions: with Dnm1l

effect of a mutation on the interaction | Variant
disrupting interaction strength | R234A;R235A;N237A
disrupting interaction strength | V253E;G254E;G255E
decreasing interaction strength | E239A;Y240A;R243A

Variants of: B1
Conditions: with Dnm1l
Remark: another data set of the same source

effect of a mutation on the interaction | Variant
disrupting interaction strength | E239A;Y240A;R243A
